Experimental data reported in patent publication US10266631B2, “Method for preparing peptide-polymer conjugate with stabilized α-helix secondary structure and peptide-polymer conjugate prepared thereby” (INDUSTRY-ACADEMIC COOPERATION FOUNDATION, YONSEI UNIVERSITY, priority 2016, dated 2019).
* marks the point of attachment. Acryloyl = C=CC(=O)*

Test: Circular dichroism (CD) spectroscopy of α-helix secondary structure
Format: physicochemical
Conditions: 25° C.
Experimental: CD spectra were recorded using a Chirascan circular dichroism spectrometer equipped with a Peltier temperature controller (Applied Photophysics Ltd.). The CD spectra of peptides were recorded at 190-260 nm.
The temperature was 25° C. and the peptide concentration was 6 μM.
The α-helix peptide substituted with an acryloyl group prepared in Preparation Example 1 (bisAAm-p53) was dissolved in a 10% HFIP solution (based on final concentration). After mixing with […] acrylamide, a peptide-polymer conjugate was prepared through free radical induced polymerization by adding ammonium persulfate (APS) and N,N,N′,N′-tetramethylethylenediamine (TEMED). The prepared 9 μM α-helix peptide multimer was diluted with a 0.2% HIFP solution.
Before CD spectrum measurement, HFIP was completely evaporated from the samples through centrifugation.

Substance: Preparation Example 1: p53-derived peptide Ac-QSQQTFKNLWRLLKQN-NH2 with both lysine ε-amines (i, i+7) acryloylated; FIG. 16A (Ac-QSQQTFK(Acryloyl)NLWRLLK(Acryloyl)QN-NH2; SMILES C=CC(=O)NCCCC[C@H](NC(=O)[C@H](CC(C)C)NC(=O)[C@H](CC(C)C)NC(=O)[C@H](CCCNC(=N)N)NC(=O)[C@H](Cc1c[nH]c2ccccc12)NC(=O)[C@H](CC(C)C)NC(=O)[C@H](CC(N)=O)NC(=O)[C@H](CCCCNC(=O)C=C)NC(=O)[C@H](Cc1ccccc1)NC(=O)[C@@H](NC(=O)[C@H](CCC(N)=O)NC(=O)[C@H](CCC(N)=O)NC(=O)[C@H](CO)NC(=O)[C@H](CCC(N)=O)NC(C)=O)[C@@H](C)O)C(=O)N[C@@H](CCC(N)=O)C(=O)N[C@@H](CC(N)=O)C(N)=O)
- α-helix secondary structure (CD spectrum) (10% HFIP solution (HFIP:water=1:9, v/v), peptide 6 μM (FIG. 4)): stabilized
- α-helix secondary structure (CD spectrum) (distilled water, peptide 6 μM (FIG. 3)): not stabilized but unfolded
